{
  "source": "paper PMC11641302",
  "origin": "cited, not measured here",
  "key": {"Nterm1 [1]": {"biological_target": "Nterm1 (UniProt position 2, ----MPVYMVY)"}, "Nterm1 [2]": {"biological_target": "Nterm1 (UniProt position 2, ----MPLLKFD)"}},
  "data": [
    {"substance": "cis-3-chloroacrylic acid dehalogenase (cis-CaaD) (Coryneform bacterium)", "values": [
      {"measurement": "pKa", "setting": "Nterm1 [1]", "value": "~9.3"}
    ]},
    {"substance": "malonate semialdehyde decarboxylase (MSAD) (Pseudomonas pavonaceae)", "values": [
      {"measurement": "pKa", "setting": "Nterm1 [2]", "value": "~9.2"}
    ]}
  ]
}
